Measurements published in paper PMC6834678.

Key:
[1] = biological target: C1q (of human serum) (human (endogenous in human serum)) (UniProt P02745)
[2] = biological target: DHS-IgG3 (class-switched IgG3 variant of Trastuzumab, G3m16 allotype with H435, with the DHS mutations) (human); experiment: SPR; antibody variants immobilised on CM5 chip (~500 RU, amine coupling); hFcRn:hβ2m dimer injected at serial dilutions (1000-40 nM) in PBS, pH 5.8, 30 μL/min; KD from steady-state isotherms or from kinetics with a 1:1 Langmuir mass transfer model
[3] = biological target: DHS-IgG4 (class-switched IgG4 variant of Trastuzumab with the DHS mutations) (human); experiment: as above
[4] = biological target: EDH-IgG1 (Trastuzumab IgG1 with V264E, L309D, Q311H) (human); experiment: as above
[5] = biological target: N434S-IgG1 (Trastuzumab IgG1 with N434S) (human); experiment: as above
[6] = biological target: wt-IgG3 (class-switched IgG3 variant of Trastuzumab, G3m16 allotype with H435, wild-type Fc) (human); experiment: as above
[7] = biological target: wt-IgG4 (class-switched IgG4 variant of Trastuzumab, wild-type Fc) (human); experiment: as above

Chain of UniProt P02745 (P02745 23-245, chain 1 of 3): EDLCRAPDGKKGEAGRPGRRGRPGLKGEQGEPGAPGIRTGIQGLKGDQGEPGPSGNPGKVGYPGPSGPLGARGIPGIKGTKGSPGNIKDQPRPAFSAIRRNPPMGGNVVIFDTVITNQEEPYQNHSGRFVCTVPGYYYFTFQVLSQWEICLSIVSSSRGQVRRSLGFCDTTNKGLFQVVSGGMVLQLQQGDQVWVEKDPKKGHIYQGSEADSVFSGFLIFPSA
Chain of UniProt P02745 (P02746 28-253, chain 2 of 3, further chain): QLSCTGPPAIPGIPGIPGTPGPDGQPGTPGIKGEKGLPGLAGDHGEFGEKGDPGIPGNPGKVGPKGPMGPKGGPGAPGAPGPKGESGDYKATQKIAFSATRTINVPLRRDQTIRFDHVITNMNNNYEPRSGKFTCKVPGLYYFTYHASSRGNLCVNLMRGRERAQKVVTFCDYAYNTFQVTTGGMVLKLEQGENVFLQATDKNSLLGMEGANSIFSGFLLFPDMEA
Chain of UniProt P02745 (P02747 29-245, chain 3 of 3, further chain): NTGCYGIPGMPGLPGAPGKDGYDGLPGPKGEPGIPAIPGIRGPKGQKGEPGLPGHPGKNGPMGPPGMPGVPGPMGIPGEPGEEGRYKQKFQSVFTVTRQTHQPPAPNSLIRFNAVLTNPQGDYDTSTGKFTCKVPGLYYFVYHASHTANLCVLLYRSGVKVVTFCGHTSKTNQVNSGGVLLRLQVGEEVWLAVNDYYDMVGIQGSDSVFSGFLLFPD

Substance | CDC of Raji cells with 25% human serum against antibody concentration; potency (name of the quantity not given) [1] [µg/mL] | Kd [2] [nM] | Kd [3] [nM] | Kd [4] [nM] | Kd [5] [nM] | Kd [6] [nM] | Kd [7] [nM]
DHS-Rituximab IgG1 (anti-CD20 IgG1 with L309D/Q311H/N434S) (antibody) | 0.7 |  |  |  |  |  | 
LS-Rituximab (anti-CD20 IgG1 with M428L/N434S) (antibody) | 1.9 |  |  |  |  |  | 
human FcRn/human β2m complex (hFcRn:hβ2m dimer) (from UniProt P55899 24-297; P61769 21-119) |  | 739 | 832 | 487 | 220 | 4080 | 2460
